Measured values taken from article PMC3309923.

Molecular target: Fc6 (recombinant human IgG1 Fc protein) (human)
Assay: SEC; analytical SEC of the Protein A purified reaction products on TSKgel SuperSW3000; native, non-reducing; 50 mM sodium phosphate pH 7.4, 300 mM NaCl, 25 °C

stoichiometry N: 2
Substance: Fc6 (recombinant human IgG1 Fc protein) (domain or fragment)
